B1: Coniochaeta sp. NISL 9330: fructosyl peptide oxidase produced by Coniochaeta sp. NISL 9330 (FERM BP-7798) with less action on ε-fructosyl lysine; amino acid sequence SEQ ID NO: 1 (protein, listed as Coniochaeta sp.)
chain: MTSNRADTRVIVVGGGGTIGSSTALHLVRSGYAPANITVLDTFEIPSAQSAGHDLNKIMGIRLRNKVDLQMSLEARQMWKEDELFQPFFHNTGRMDCEHTPEGIEDLKKQYQALHDAGAGLEKTHAWLDNEDEILSKMPLLQRDQIQGWKAIWSQDGGWLAAAKAINAIGQFLKERGVKFGFGGAGSFKQPLFDDEGTTCIGVETADGTKYYADKVVLAAGAWSPTLVDLEDQCCSKAWVYAHIQLTPEEAAEYKGVPVVYNGEFGFFFEPNEFGVIKVCDEFPGFSRFKEHQPYGAPSPKHISVPRSHAKHPTDTYPDASEVSIKKAIATFLPRFQDKELFNRALCWCTDTADAALLMCEHPKWKNFILATGDSGHSFKILPNVGKHVVELIEGRLPEEMAYQWRWRPGGDALKSRRAAPPKDLADMPGWKHDPKL
B2: Eupenicillium terrenum ATCC 18547: fructosyl peptide oxidase produced by Eupenicillium terrenum ATCC 18547 with less action on ε-fructosyl lysine; amino acid sequence SEQ ID NO: 3 (protein, listed as Eupenicillium terrenum)
chain: MAHSRASTKVVVVGGGGTIGSSTALHLIRSGYTPSNITVLDVYKTPSLQSAGHDLNKIMGIRLRNGPDLQLSLESLDMWQNDELFKPFFHQVGMIDCSSSKEGIENLRRKYQTLLDAGIGLEKTNVWLESEDEILAKAPNFTREQVKGWKGLFCTDGGWLAAAKAINAIGIFLQDKGVKFGFGGAGTFQQPLFAADGKTCIGLETTDGTKYFADKVVLAAGAWSPTLVDLEDQCVSKAWVFAHIQLTPKEADAYKNVPVVYDGEYGFFFEPNEYGVIKVCDEFPGFSRFKLHQPYGAASPKMISVPRSHAKHPTDTYPDASEVTIRKAIARFLPEFKDKELFNRTMCWCTDTADANLLICEHPKWKNFILATGDSGHSFKLLPNIGKHVVELLEGSLSQEMAGAWRWRPGGDALRSRRGAPAKDLAEMPGWKHDAHL

Assays:
Type in all cases: biochemical
[1] = Optimum pH of the enzyme reaction; settings: purified oxidase, 30° C.; for optimum pH (range): relative activities of 70% or higher
Protocol: For example, 200 mM acetic acid buffer (pH 3.0-6.0), 200 mM MES-NaOH (pH 6.0-7.0), 200 mM Tris buffer (pH 6.8-9.0), 200 mM potassium phosphate buffer (pH 6.5-8.0) and 200 mM glycine buffer (pH 8.0-12.0) are used as buffers to perform enzyme reactions at the indicated pH at 30° C., thereby determining optimal pH. For example, the oxidases of the invention may have an optimal pH at 5.0-9.0, preferably pH 6.0-8.0. For example, 200 mM acetic acid buffer (pH 3.0-6.0), 200 mM MES-NaOH (pH 6.0-7.0), 200 mM Tris buffer (pH 6.8-9.0), 200 mM potassium phosphate buffer (pH 6.5-8.0) and 200 mM glycine buffer (pH 8.0-12.0) are used as buffers to perform enzyme reactions at the indicated pH at 30° C., thereby determining optimal pH. For example, the oxidases of the invention that have less action on ε-fructosyl lysine may have an optical pH at 5.0-9.0, preferably at 6.0-8.0. Enzyme reaction was monitored in 200 mM acetic acid buffer (pH 3.0-6.0), 200 mM MES-NaOH (pH 6.0-7.0), 200 mM Tris buffer (pH 6.8-9.0), 200 mM potassium phosphate buffer (pH 6.5-8.0) or 200 mM glycine buffer (pH 8.0-12.0) at the indicated pH values at 30° C. […] Enzyme reaction was monitored in 200 mM acetic acid buffer (pH 4.0-6.0), 200 mM MES-NaOH (pH 6.0-7.0), 200 mM Tris buffer (pH 7.0-8.5), 200 mM potassium phosphate buffer (pH 6.0-8.0) or 200 mM glycine buffer (pH 8.0-9.0) at the indicated pH values at 30° C.

[2] = Optimum temperature range of the enzyme reaction; settings: purified oxidase
Protocol: For example, a reaction solution having the same composition as that of a reaction solution used for the activity assay described later is used to determine activities of the enzyme at various temperatures, thereby determining a suitable temperature range for action. The oxidases of the invention may, for example, have a suitable temperature range of 20-50° C., preferably 25-45° C. For example, a reaction solution having the same composition as that of a reaction solution for the activity assay described later is used to determine activities of the enzyme at various temperatures, thereby determining a suitable temperature range. The oxidases of the invention that have less action on ε-fructosyl lysine may, for example, have a suitable temperature range of 20-50° C., preferably 25-40° C. The activity of the inventive oxidase was assayed at different temperatures using reactions which consisted of the same compositions as those used in the above-described activity assay.

[3] = Reaction with products obtained by digesting α-glycated hexapeptide with protease (96-well plate, 510 nm); settings: purified enzyme; compared to 100% activity for fructosyl glycine; monitored at 510 nm for 70 minutes
Source text: Glycated hemoglobin (HbA1c) may be treated with endoproteinase Glu-C to liberate α-glycated hexapeptide (fructosyl Val-His-Leu-Thr-Pro-Glu) from the glycated hemoglobin β-chain (Clin. Chem., 43; 10 1944-1951, 1997). Fructosyl Val-His-Leu-Thr-Pro-Glu (available from PEPTIDE INSTITUTE, INC), which is the same substance as the α-glycated hexapeptide, was used in the following experiment.
α-glycated hexapeptide (fructosyl Val-His-Leu-Thr-Pro-Glu, MW=856, available from PEPTIDE INSTITUTE, INC) (3.434 mg) was dissolved in 0.2 ml of water.
Molsin (15 mg, available from Kikkoman Corp.) was dissolved in 0.2 ml of buffer (10 mM acetate buffer, pH 3.0)
A (100 μl), B (5 μl) and C (5 μl) were mixed in a microtube and incubated at 37° C. for 17 hours. The reaction solution was then filtered using Microcon 10 (available from Amicon) to remove protease.
(§1) Developer solution consisted of the following materials:
• (a) Enzyme purified from Achaetomiella virescens ATCC 32393 • (b) Enzyme purified from Eupenicillium terrenum ATCC 18547 • (c) Enzyme purified from Coniochaeta sp. […]
Reaction substrate (D: a, b) (20 μl), developer solution (E) (20 μl) and the inventive oxidase (F: a-d) (10 μl) were mixed in 96-well assay plates for reaction. Each plate was monitored at 510 nm using a plate reader (Immuno Mini NJ-2300, available from Nalge Nunc International K. K.) for 70 minutes. […]

[4] = Reaction assay in 96-well plate with fructosyl glycine (control substrate); settings: purified enzyme; control substrate set to 100%
Protocol: Fructosyl glycine (4.5 mg) was dissolved in 1 ml of water.
as §1
• (a) Enzyme purified from Achaetomiella virescens ATCC 32393 • (b) Enzyme purified from Eupenicillium terrenum ATCC 18547 • (c) Enzyme purified from Coniochaeta sp. NISL 9330 (FERM BP-7798) • (d) 20 mM phosphate buffer, pH 8.0 (2) Reaction Assay
Reaction substrate (D: a, b) (20 μl), developer solution (E) (20 μl) and the inventive oxidase (F: a-d) (10 μl) were mixed in 96-well assay plates for reaction. Each plate was monitored at 510 nm using a plate reader (Immuno Mini NJ-2300, available from Nalge Nunc International K. K.) for 70 minutes. The results are shown as % relative activity when compared to 100% activity for fructosyl glycine (Table 4). […] It was confirmed that all of the inventive oxidases were reactive with the protease-digested products of α-glycated hexapeptide.

Row | Molecule | pH of maximum activity (most preferable pH) [1] [pH] | optimum pH (range) [1] | temperature of maximum activity (100%) [2] | % relative activity on protease-digested α-glycated hexapeptide [3] [%] | % relative activity on fructosyl glycine [4] [%] | optimum temperature range ([2]; relative activities of 50% or 60% or higher)
1 | B1 | 7.0 | 6.0-8.0 pH | around 40 °C | 10.0 | 100 | –
2 | B2 | 7.0 | 6.0-8.0 pH | around 35 °C | 9.5 | 100 | 25-40 °C

Reference: patent US7419813B2, “Fructosyl peptide oxidase” (Kikkoman Corporation, priority 2001, dated 2008)
